The text below walks through data of paper PMC3760383.

Targets include IFI16 HIN-A (Homo sapiens, UniProt Q16666-2 192-393); p53 (82-360);IFI16 HIN-B (Homo sapiens;Homo sapiens, UniProt P04637;Q16666-2 82-360;515-710, |); p53 (82-393);IFI16 HIN-A (Homo sapiens;Homo sapiens, UniProt P04637;Q16666-2 82-393;192-393, |).
Holding throughout (experiment): EMSA
On the technique in general: A gel shift assay detects complexes by their altered migration in electrophoresis.

Sequence of IFI16 HIN-A (Q16666 192-393): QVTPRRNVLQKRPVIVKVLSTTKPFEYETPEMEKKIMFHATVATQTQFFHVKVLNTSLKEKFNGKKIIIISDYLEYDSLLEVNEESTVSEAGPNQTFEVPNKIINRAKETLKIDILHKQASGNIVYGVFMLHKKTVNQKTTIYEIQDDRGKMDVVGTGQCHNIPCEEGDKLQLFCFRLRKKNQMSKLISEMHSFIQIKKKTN

B1: p53 consensus 20-mer (dsDNA)
DNA 1: GGACATGCCCGGGCATGTCC
DNA 2: GGACATGCCCGGGCATGTCC
As for B1, the binding result in the series with IFI16 HIN-A is recorded as “no binding”; with p53 (82-360);IFI16 HIN-B it was “binds”; in the series with p53 (82-393);IFI16 HIN-A it was “binds”.
